The target of this test is human IL-25 expressed with a C-terminal myc-myc-hexahistidine tag (human). The test can be described thus: competition ELISA, 2 nM hIL-25-MMH binding to coated hIL-17RB-hFc; IC50 cell printed 'Non-blocker'.
human IL-25 expressed with a C-terminal myc-myc-hexahistidine tag (human), sequence (chain, as listed by the source): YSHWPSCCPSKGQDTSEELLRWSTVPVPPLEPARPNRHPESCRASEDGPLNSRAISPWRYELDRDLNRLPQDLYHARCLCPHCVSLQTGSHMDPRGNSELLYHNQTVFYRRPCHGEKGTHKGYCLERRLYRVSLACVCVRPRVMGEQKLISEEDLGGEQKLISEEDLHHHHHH

As to hIgG4 isotype control (antibody), the % Maximum blocking of 200 nM antibody is -31%.
As to mIgG2a isotype control (antibody), the % Maximum blocking of 200 nM antibody is -45%.

Source of the values: patent US20160083466A1.
